Laboratory results taken from the RNAGym collection of RNA variant scans (doi:10.1073/pnas.2313332121).
Variants at the floor of the assay were thinned out.

B1: TPR 5TU (parent)
chain: GGAUCUUCUCGAUCUAACAAAAAAGACAAAUCUGCCACAAAGCUUGAGAGCAUCUUCGGAUGCAGAGGCGGCAGCCUUCGGUGGCGCGAUAGCGCCAACGUUCUCAACUAUGACACGCAAAACGCGUGCUCCGUUGAAUGGAGUUUAUCAUG

Variants of: B1
Test: polymerase ribozyme fitness, log enrichment relative to wild type (log ratio); higher = more active; in vitro selection for triplet polymerase activity
How it was run: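 Mutant libraries were PCR-built and transcribed for each subunit of a heterodimeric triplet polymerase ribozyme and selected for one round in triplicate at −7 °C, frozen, before gel excision of extended constructs and streptavidin-bead capture. Input and output libraries were Illumina-sequenced, keeping genotypes with ≥10 input reads and ≥1 read per output. Fitness is a logarithmic ratio of genotype to wild-type enrichment, in base 2, using inverse-variance-weighted replicate averages.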

**Q.** Which “polymerase ribozyme fitness (log ratio)” value does the source give for GGACCUUCUCGAUCUAACAAAAAAGACAAAUCUGCCAUAAAGCUUGAGAGCAUCGUCGGAUGCAGAGGCGGCAGCCUUCGGUGGCGAGAUAGCGCCAACGUUCUCGACUAUGACACGCAAAACGCGUGCUCCGUUGAAUGGAGUUUAUCAUG here?
**A.** Its value is ≤ -4.2.

**Q.** For GGACCUUCUCGAUAUAACAAAAAAGACAAAUCUGCCACAAAGCUUGAGAGCAUCUUCGGAUGCAGAGGCGGCAGCCUUCGGUGGCGCGAUAGGGCCAACGUUCUCAACUAUGACACGCAAAACGCGUGCUCCGUUGAAUGGAGUUUAUCAUG, which “polymerase ribozyme fitness (log ratio)” value is on record?
**A.** The value was ≤ -4.2.

**Q.** With GGACCUUCUCGAUCUAACAAAAAAGACAAAUCUGCCACAAAGCUUGAGAGCAUCUUCGGAUGCAGAGGCGGCAACCUUCGGUGGCGCGAUAGCGCCAACGUUCUCAACUAUGACACGCAAAACGCGUGCUCCGUUGAAUGGAGUUUAUCAUG as the variant, how does the “polymerase ribozyme fitness (log ratio)” value read?
**A.** Its value is -3.29.

**Q.** Which “polymerase ribozyme fitness (log ratio)” value does the source give for GGACCUUCUUGAUCUAACAAAAAAGACAAAUCUGCCACAAAGCUUGAGAGCAUCUGCGGUUGCAGAGGCGGCAGCCUUCGGUGGCGCGAUAUCGCCAACGUUCUCAACUAUGACACGCAAAACGCGUGCUCCGUUGAAUGGAGUUUAUCAUG here?
**A.** Its value is -3.76.

**Q.** For GGACCGUCUCGAUCUAACAAAAAAGACAAAUCUGCCACAAAGCUUGAGAGCAUCAUCGGAUGCAGAGGCGGCAGCCUUCGGUGGCGCGAUAGGGCCAACGUUGUCAACUAUGACACGCAAAACGCGUGCUCCGUUGAAUGGAGUUUAUCUUG, which “polymerase ribozyme fitness (log ratio)” value is on record?
**A.** Its value is ≤ -4.2.

**Q.** With GGACCUGCUCGAUCUAACAAAAAAGAUAAAACUGCCACAAAGCUUGAGAGCAUCUUCGGAUGCAGAGUCGGCAGCCUUCGGUGGCGCUAUAGCGCCAACGUUCUCAACUAUGACACGCAAAACGCGUGCUCCGUUGAAUGGAGUUUAUCAUG as the variant, how does the “polymerase ribozyme fitness (log ratio)” value read?
**A.** The value was ≤ -4.2.

**Q.** With GGACCUUCUCGAUCGAACAAAAAAGACAAAUCUGCCACAAAGCUUGAGAGCAUCUUCGGAUGCAGAGGCGGCAGCCAUCGGUGGCGCGAUAUCGCCAAGGUUCUCAACUAUGACACGCAAAACGCGUGCUCCGUUGAAUGGAGUUUAUCAUG as the variant, how does the “polymerase ribozyme fitness (log ratio)” value read?
**A.** Its value is ≤ -4.2.

**Q.** For GGACCUUCUCGAUCUAACAAAAAAGACAAAUCUGCCACAAAGCUUGAGAGCAUCUUCGGAUGCAGAGGCGGCAGCAUUCGGUGGCGCGAUAGUGCCAACGUUCUCAACUAUGACACGCAAAACGCGUGCUCCGUUGAAUGCAGUUUAUCAUG, which “polymerase ribozyme fitness (log ratio)” value is on record?
**A.** Its value is ≤ -4.2.

**Q.** Which “polymerase ribozyme fitness (log ratio)” value does the source give for GGACCUUCUCGAUCUAACAAAAAAGACAAAUCUGCCACAAAGCUUGAGAGCAUCUUCGGAUGCAGAGGCGGCAGCCUUCGGUGGCUCGAUAGCGCCAACGUUCUCAACUAUGACACGCAAAACGCGUGCUCCGUUGAAUGGAGUUUAUCAUG here?
**A.** Its value is -1.9.

**Q.** With GGACCUUCUCUAUCUAACAAAAAAGACAAAUCUGCCACAAAGCUUGAGGGCAUCUUCGGAAGCAGAGGCGGCAGCCUUCCGUGGCGCGAUAGCGCCAGCGUUCUCAACUAUGACACGCAAAACGCGUGCUCCGUUGAAUGAAGUUUAUCAUG as the variant, how does the “polymerase ribozyme fitness (log ratio)” value read?
**A.** Its value is ≤ -4.2.

**Q.** Which “polymerase ribozyme fitness (log ratio)” value does the source give for GGACCUUCUCGAUCUAACAAAAAAGAUAAAUCUGCCACAAAGCUUGAGAGCAUCUUCGGAUCCAGAGGCGGCAGCCUUCGGUGGAGCGAUAGCGCCAACGUUCUCAACUAUGACACGCAAAACGCGUGCUCCGUUGAUUGGAGUUUAUCAUG here?
**A.** Its value is ≤ -4.2.

**Q.** With GGACCUUCUCGAUCUAACAAAAAAGACAAAUCUGUCACAAAGCUUGCGAGCAUCUUCGGAUGCAGAGGCGGCAGCCUGCGGUGGCGCGAUAGCGCCAACGUUCUCAACUAUGACACGCAAAACGCGUGCUCCGUUCAAUGGAGUUUAUCAUG as the variant, how does the “polymerase ribozyme fitness (log ratio)” value read?
**A.** Its value is ≤ -4.2.

**Q.** With GGACCUUCUCGAUCUAACAAAAAAGACAAAUCUGCCACAAAGCUUGAGAGCAUCUUAGGAUGCAGAGGCGGCAGCCUUCGGUGGCGAGAUAGCGCCAACGUUCUCAACUAUGACACGCAAAACGCGUGCUCCGUUGAAUGGAGUUAAUCCUG as the variant, how does the “polymerase ribozyme fitness (log ratio)” value read?
**A.** The value was ≤ -4.2.

**Q.** For GGACCUUCUCGAUCUAACAAAAAAGACAAAUCUGCCACAAAGCUUGAAAGCAUCUUCGGAUGCAGAGGCGGCAGCCUUCGGUGGCGCGAUAGCGCCAACGUUCUCAACUAUGACACGCAAAACGCGUGCUCCGUUGAAUGGAGUUUAUCAUG, which “polymerase ribozyme fitness (log ratio)” value is on record?
**A.** Its value is -1.42.

**Q.** Which “polymerase ribozyme fitness (log ratio)” value does the source give for GGACCUUCUCGAUCUAACAAAAAAGACAAAUCUGCCACAAAGCUUGAGAGCAUCUUCGGAUGCAGAGGCGGCAGCCUUCGGUGGUGCGAUAGCGCCAACGGUCUCAACUAUGACACGCAAAACGCGUGCUCCGUUGAAUGGAGUUUCUCAUG here?
**A.** The value was -0.704.

**Q.** With GGACCUUCUCGAUCUAACAAAAAAGACAAAUCUGCCACAAAGCUUGAGAGCAUCUUCUGAUGCAGAGGCGGCAGACUUCGGUGGCGCGAUUGCGCCAACGUUCGCAACUAUGACACGCAAAACGCGUGCUCCGUUGAAUGGAGAUUAUUAUG as the variant, how does the “polymerase ribozyme fitness (log ratio)” value read?
**A.** Its value is ≤ -4.2.

**Q.** With GGACCUUCUCGAUCUAACAAAAAAGACAAAUCUGCCACAAAGCUUGAGAGCAUCUUCGGAUGCAGAGGCGGCAGCCUUCGGUGGCGCGAUAGCGUCAACGUUCUCAACUAUGACACGCAAAUCGCGUGCUCCGUUGAAUGGAGUUUAUCAUG as the variant, how does the “polymerase ribozyme fitness (log ratio)” value read?
**A.** Its value is -0.317.

**Q.** For GGACCUUCUCGAUCUAACAAAAAAGACAAAUCUGCCACAAAGCUUGAGAGCAUCUUAGGAUGCAGAGGCGGCAGCCUUCGGUGGCGCGAUAGCGAUAACGUUCUCAACUAUGACACGCAAAACGCGUGCUCCGUUGAAUGAAGUUUAUCAUG, which “polymerase ribozyme fitness (log ratio)” value is on record?
**A.** The value was -3.87.

**Q.** For GGACCUUCUCGAUCUAAUAAAAAAGACAAAUCUGCCACAAAGCUUGAUCGCAUCUUCGGAUGCAGAGUCGGCAACAUUCGGUGGCGCUAUAGCGCCAACGUUCUCAACUAUGACAGGCAAAACGCGUGCUCCGUUGAAUGGAGUUUAUCAUG, which “polymerase ribozyme fitness (log ratio)” value is on record?
**A.** The value was ≤ -4.2.
